Measured values published in the RNAGym collection of RNA variant scans (doi:10.1038/ncomms11558).

B1: mRNA-splicing (parent)
chain: GAUCCAGAUCUAACUUGGGGUGGCUUUGUCUUCUUCUUUUGCCAAUUCCACUAAUUGUUUGGG

Variants of: B1
Experiment: exon inclusion enrichment score (log2 ratio to wild type); higher = more inclusion; FAS exon 6 minigene, HEK293

Variant	exon inclusion enrichment score
U37A	0.26
U37G	0.33
U37C	0.225
A50G	0.131
A50C	-3.91
A50U	-1.12
C24A	0.043
C24G	-6.71
C24U	-1.64
G19A	0.892
G19C	0.027
G19U	0.032
A44C	-0.731
A44U	-1.32
A44G	0.314
C33A	-3.75
C33G	-2.4
C33U	-4.54
G23A	0.238
G23U	-0.765
G23C	-0.164
G17C	-0.067
G17A	-2.56
G17U	-0.191

Variant	exon inclusion enrichment score
G20A	0.232
G20U	-2.17
G20C	0
U46C	0.336
U46G	0.344
U46A	0.041
G62U	-0.581
G62A	-0.115
G62C	-0.199
U55C	0.069
U55A	0.386
U55G	0.117
U35A	-0.045
U35C	0.127
U35G	0.167
G57A	-0.066
G57U	0.003
G57C	-0.537
U32G	0.176
U32C	-0.05
U32A	-0.129
U52C	0.564
U52G	0.635
U52A	0.166

Variant	exon inclusion enrichment score
C4G	-0.794
C4A	-2.11
C4U	-2.86
U40A	-2.39
U40C	0.287
U40G	0.275
G61A	-1.32
G61C	0.061
G61U	-0.154
C48G	-1.23
C48A	-1.74
C48U	-2.35
U16G	-0.702
U16C	0.271
U16A	-0.773
C42U	-1.2
C42A	-0.179
C42G	-0.175
U3G	-0.136
U3A	-0.683
U3C	-0.472
C10G	-0.124
C10U	0.024
C10A	-0.393

Variant	exon inclusion enrichment score
G28A	-1.07
G28C	-1.84
G28U	-1.36
U58C	-0.116
U58A	0.099
U58G	-0.27
U9G	-0.183
U9A	-0.097
U9C	1.28
U27A	-0.647
U27C	0.72
U27G	-0.115
U56G	0.059
U56C	0.215
U56A	-0.713
G7U	-2.07
G7A	-1.15
G7C	-0.443
G63C	-6.23
G63A	-5.7
G63U	-5.1
C5A	-0.066
C5U	-4.59
C5G	-0.076

Variant	exon inclusion enrichment score
C36G	-0.112
C36U	-2.31
C36A	-0.688
C49G	0.869
C49U	-0.226
C49A	1.46
U39A	0.361
U39C	0.236
U39G	0.267
C30U	-2.3
C30G	-0.286
C30A	-0.973
U26A	0.39
U26C	-0.07
U26G	-0.547
U47A	-0.214
U47G	-1.62
U47C	-2.08
A8G	0.152
A8C	0.321
A8U	-0.416
U60C	-0.19
U60G	-0.709
U60A	-2.55

Variant	exon inclusion enrichment score
G18C	0.301
G18U	0.258
G18A	-0.636
A53G	0.229
A53C	-0.152
A53U	-0.046
A13G	-0.194
A13U	-0.29
A13C	1.26
G1C	-4.23
G1U	-5.1
G1A	-3.07
A2U	-0.046
A2G	0.511
A2C	-0.31
G22U	-0.589
G22C	0.067
G22A	-2.09
U38G	0.274
U38A	-0.025
U38C	0.106
U59G	-0.228
U59A	-0.31
U59C	-0.032

Variant	exon inclusion enrichment score
U29C	0.119
U29G	-3.82
U29A	0.257
A45U	-1.33
A45G	-0.008
A45C	-3.69
C14A	-0.554
C14U	-0.791
C14G	-0.135
G41A	-0.772
G41U	-1.24
G41C	-1.66
A6C	-0.522
A6G	0.571
A6U	-0.25
U11G	0.304
U11C	0.559
U11A	0.08
U31G	-1.2
U31A	0.242
U31C	-0.076
U34G	0.283
U34C	-0.17
U34A	-0.179

Variant	exon inclusion enrichment score
A12C	0.251
A12G	0.431
A12U	-0.405
C43U	-2.69
C43A	-0.47
C43G	0.061
A54G	-0.319
A54C	0.187
A54U	-0.013
U25G	0.284
U25A	0.211
U25C	0.429
U15C	0.272
U15G	0.039
U15A	-0.077
U21C	0.243
U21A	0.125
U21G	-5.29
C51A	-1.68
C51G	0.038
C51U	-1.53
